Data published in IntAct's records for PubMed 29039417.

B1: Protein PTHB1 (Homo sapiens), Q3SYG4 (parent)
chain: MSLFKARDWWSTILGDKEEFDQGCLCLANVDNSGNGQDKIIVGSFMGYLRIFSPHPAKTGDGAQAEDLLLEVDLRDPVLQVEVGKFVSGTEMLHLAVLHSRKLCVYSVSGTLGNVEHGNQCQMKLMYEHNLQRTACNMTYGSFGGVKGRDLICIQSMDGMLMVFEQESYAFGRFLPGFLLPGPLAYSSRTDSFLTVSSCQQVESYKYQVLAFATDADKRQETEQQKLGSGKRLVVDWTLNIGEQALDICIVSFNQSASSVFVLGERNFFCLKDNGQIRFMKKLDWSPSCFLPYCSVSEGTINTLIGNHNNMLHIYQDVTLKWATQLPHIPVAVRVGCLHDLKGVIVTLSDDGHLQCSYLGTDPSLFQAPNVQSRELNYDELDVEMKELQKIIKDVNKSQGVWPMTEREDDLNVSVVVSPNFDSVSQATDVEVGTDLVPSVTVKVTLQNRVILQKAKLSVYVQPPLELTCDQFTFEFMTPDLTRTVSFSVYLKRSYTPSELEGNAVVSYSRPTDRNPDGIPRVIQCKFRLPLKLICLPGQPSKTASHKITIDTNKSPVSLLSLFPGFASQSDDDQVNVMGFHFLGGARITVLASKTSQRYRIQSEQFEDLWLITNELILRLQEYFEKQGVKDFACSFSGSIPLQEYFELIDHHFELRINGEKLEELLSERAVQFRAIQRRLLARFKDKTPAPLQHLDTLLDGTYKQVIALADAVEENQGNLFQSFTRLKSATHLVILLIALWQKLSADQVAILEAAFLPLQEDTQELGWEETVDAAISHLLKTCLSKSSKEQALNLNSQLNIPKDTSQLKKHITLLCDRLSKGGRLCLSTDAAAPQTMVMPGGCTTIPESDLEERSVEQDSTELFTNHRHLTAETPRPEVSPLQGVSE
partner: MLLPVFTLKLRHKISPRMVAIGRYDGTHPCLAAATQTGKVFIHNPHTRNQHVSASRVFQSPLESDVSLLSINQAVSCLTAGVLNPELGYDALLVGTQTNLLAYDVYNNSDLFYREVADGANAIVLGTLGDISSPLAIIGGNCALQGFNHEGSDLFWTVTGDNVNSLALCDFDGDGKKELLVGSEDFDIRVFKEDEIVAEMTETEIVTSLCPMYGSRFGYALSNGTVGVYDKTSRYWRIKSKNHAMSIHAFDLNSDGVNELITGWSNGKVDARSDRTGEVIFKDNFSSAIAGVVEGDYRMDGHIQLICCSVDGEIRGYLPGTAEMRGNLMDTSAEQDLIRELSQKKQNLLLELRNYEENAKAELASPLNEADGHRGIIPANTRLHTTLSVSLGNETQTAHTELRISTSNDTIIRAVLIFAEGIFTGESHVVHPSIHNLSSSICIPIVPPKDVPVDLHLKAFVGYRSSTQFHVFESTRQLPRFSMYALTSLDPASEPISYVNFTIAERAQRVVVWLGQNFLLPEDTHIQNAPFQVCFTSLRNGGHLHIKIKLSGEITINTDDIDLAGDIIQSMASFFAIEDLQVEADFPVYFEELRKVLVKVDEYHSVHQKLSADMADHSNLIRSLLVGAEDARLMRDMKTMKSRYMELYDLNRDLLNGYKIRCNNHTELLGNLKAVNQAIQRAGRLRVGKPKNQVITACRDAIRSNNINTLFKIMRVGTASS

Variants of: B1
Settings: with bbs2_human BBS2, Q9BXC9

Row | Variant | effect of a mutation on the interaction
1 | Q627A | with no effect
2 | Q627E | with no effect
3 | Q627K | with no effect
4 | G628A | with no effect
5 | G628E | disrupting interaction strength
6 | G628K | with no effect
7 | V629A | with no effect
8 | V629E | with no effect
9 | V629K | with no effect
10 | K630A | with no effect
11 | K630E | with no effect
12 | D631A | with no effect
13 | D631E | with no effect
14 | D631K | with no effect
15 | F632A | with no effect
16 | F632E | with no effect
17 | F632K | with no effect
18 | A633E | with no effect
19 | A633K | with no effect
20 | A633V | disrupting interaction strength
21 | C634A | with no effect
22 | C634E | with no effect
23 | C634K | with no effect

Row | Variant | effect of a mutation on the interaction
24 | S635A | with no effect
25 | S635E | with no effect
26 | S635K | with no effect
27 | F636A | with no effect
28 | F636E | with no effect
29 | F636K | with no effect
30 | S637A | with no effect
31 | S637E | with no effect
32 | S637K | with no effect
33 | G638A | with no effect
34 | G638E | with no effect
35 | G638K | with no effect
36 | S639A | with no effect
37 | S639E | with no effect
38 | S639K | with no effect
39 | I640A | with no effect
40 | I640E | with no effect
41 | I640K | with no effect
42 | P641A | with no effect
43 | P641E | with no effect
44 | P641K | with no effect
45 | L642A | with no effect
46 | L642E | with no effect

Row | Variant | effect of a mutation on the interaction
47 | L642K | with no effect
48 | Q643A | with no effect
49 | Q643E | with no effect
50 | Q643K | with no effect
51 | E644A | with no effect
52 | E644K | with no effect
53 | Y645A | with no effect
54 | Y645E | with no effect
55 | Y645K | with no effect
56 | F646A | with no effect
57 | F646E | with no effect
58 | F646K | with no effect
59 | E647A | with no effect
60 | E647K | with no effect
61 | L648A | with no effect
62 | L648E | with no effect
63 | L648K | with no effect
64 | I649A | with no effect
65 | I649E | with no effect
66 | I649K | with no effect
67 | D650A | with no effect
68 | D650E | with no effect
69 | D650K | with no effect

Row | Variant | effect of a mutation on the interaction
70 | H651A | with no effect
71 | H651E | with no effect
72 | H651K | with no effect
73 | H652A | with no effect
74 | H652E | with no effect
75 | H652K | with no effect
76 | F653A | with no effect
77 | F653E | with no effect
78 | F653K | with no effect
79 | E654A | with no effect
80 | E654K | with no effect
81 | L655A | with no effect
82 | L655E | with no effect
83 | L655K | with no effect
84 | R656A | with no effect
85 | R656E | with no effect
86 | R656K | with no effect
87 | I657A | with no effect
88 | I657E | with no effect
89 | I657K | with no effect
90 | N658A | with no effect
91 | N658E | with no effect
